Test results published in the Human Domainome abundance scans (Beltran et al. 2025).
± gives the uncertainty stated by the source.

B1: Zinc finger MYM-type protein 6, residues 427 to 504; numbered along this chain, O95789 (parent)
chain: KLKCQHCNHLFATKPELLFYKGKMFLFCGKNCSDEYKKKNKVVAMCDYCKLQKIIKETVRFSGVDKPFCSEVCKFLSA

Variants of: B1
Test: abundance fitness (aPCA) (normalised: wild type 0, dead -1); higher = more abundant; growth selection in yeast, the domain comes from the species named
Conditions: Homo sapiens

First: KLKCQHCNHLFATKPELLFYKGKMFLFCGKNCSDEYKKKNKVVAMCDYCKLQKIIKETVRFSGVDKPFCKEVCKFLSA [S70K]
Second: KLKCQHCNHLFATKPELLFYKGKMFLFCGKNCSDEYKKKNKVVAMCDYCKLQKIIKETVRFSGVDKPFCSRVCKFLSA [E71R]
The abundance fitness of the first is lower: -0.635 ± 0.39 for the first, -0.111 ± 0.081 for the second.

First: KLKCQHCNHLFATKPELLFYKGEMFLFCGKNCSDEYKKKNKVVAMCDYCKLQKIIKETVRFSGVDKPFCSEVCKFLSA [K23E]
Second: KLKCQHCNHLFATKPELLFYKGLMFLFCGKNCSDEYKKKNKVVAMCDYCKLQKIIKETVRFSGVDKPFCSEVCKFLSA [K23L]
The abundance fitness of the first is higher: 0.062 ± 0.042 for the first, -0.067 ± 0.045 for the second.

Going from KLKCQHCNHLFATKPELLFYKGWMFLFCGKNCSDEYKKKNKVVAMCDYCKLQKIIKETVRFSGVDKPFCSEVCKFLSA [K23W] to KLKCQHCNHLFATKPELLFYKGKMFLFCGKNCSDRYKKKNKVVAMCDYCKLQKIIKETVRFSGVDKPFCSEVCKFLSA [E35R], the abundance fitness rises from -0.419 ± 0.044 to -0.021 ± 0.03.

First: KLKCQHCNHLFATKPELLFYKGKMFLFCGKNCSDMYKKKNKVVAMCDYCKLQKIIKETVRFSGVDKPFCSEVCKFLSA [E35M]
Second: KLKCQHCNHLFATKPELLFYKGKMFLFCGKNCSDEYKKKNKVVAMCDYCKLVKIIKETVRFSGVDKPFCSEVCKFLSA [Q52V]
The abundance fitness of the first is lower: -0.054 ± 0.033 for the first, 0.173 ± 0.092 for the second.

First: KLKCQHCNHLFATKPELLFYKGKMFLFCGKNCSDEYKKKNKVVAMCDYCKLEKIIKETVRFSGVDKPFCSEVCKFLSA [Q52E]
Second: KLKCAHCNHLFATKPELLFYKGKMFLFCGKNCSDEYKKKNKVVAMCDYCKLQKIIKETVRFSGVDKPFCSEVCKFLSA [Q5A]
The abundance fitness of the first is higher: 0.446 ± 0.075 for the first, -0.023 ± 0.031 for the second.

KLKCQHCNHLFALKPELLFYKGKMFLFCGKNCSDEYKKKNKVVAMCDYCKLQKIIKETVRFSGVDKPFCSEVCKFLSA [T13L] and KLKCQHCNHLFANKPELLFYKGKMFLFCGKNCSDEYKKKNKVVAMCDYCKLQKIIKETVRFSGVDKPFCSEVCKFLSA [T13N] are within error of each other in abundance fitness: -0.176 ± 0.034 for the first, -0.128 ± 0.092 for the second.

KLKCQHCNHLFATKPELLFYKGKMFLFCGKNCSDEYKKKNKVVAMCDYCKLQKIIKETVNFSGVDKPFCSEVCKFLSA [R60N] and KLKCQHCNHLFATKPELLFYKGKMFLFCGKNCSDEYKKKNKVVAMCDYCKLQKIIKETVSFSGVDKPFCSEVCKFLSA [R60S] are within error of each other in abundance fitness: 0.366 ± 0.19 for the first, 0.39 ± 0.13 for the second.

KLKCQHCNHLFCTKPELLFYKGKMFLFCGKNCSDEYKKKNKVVAMCDYCKLQKIIKETVRFSGVDKPFCSEVCKFLSA [A12C] and KLKCQHCNHLFNTKPELLFYKGKMFLFCGKNCSDEYKKKNKVVAMCDYCKLQKIIKETVRFSGVDKPFCSEVCKFLSA [A12N] are within error of each other in abundance fitness: -0.096 ± 0.05 for the first, -0.218 ± 0.076 for the second.

First: KLKCQHCNHLFYTKPELLFYKGKMFLFCGKNCSDEYKKKNKVVAMCDYCKLQKIIKETVRFSGVDKPFCSEVCKFLSA [A12Y]
Second: KLKCQHCNHLFATKPELLFYKGKMFLFCGKNCSDEYKKKNKVVAMCDYCKLQKIIKETVRFSGVDKPFCSEVCKFMSA [L76M]
The abundance fitness of the first is lower: -0.205 ± 0.08 for the first, 0.759 ± 0.09 for the second.

KLKCQHCNHLFATKPELLFYKGKMFLFCGKNCSDEYKKKNKVVAMADYCKLQKIIKETVRFSGVDKPFCSEVCKFLSA [C46A] and KLKCQHCNHLFATKPELLFYKGKMFLFCGKNCSDEYKKKNKVVAMVDYCKLQKIIKETVRFSGVDKPFCSEVCKFLSA [C46V] are within error of each other in abundance fitness: -0.479 ± 0.12 for the first, -0.308 ± 0.11 for the second.

KLKCQHCNHLFATKPELLFYKGKMFLFCGKQCSDEYKKKNKVVAMCDYCKLQKIIKETVRFSGVDKPFCSEVCKFLSA [N31Q] and KLKCQHCNHLFATKPELLFYKGKMFLFCGKYCSDEYKKKNKVVAMCDYCKLQKIIKETVRFSGVDKPFCSEVCKFLSA [N31Y] are within error of each other in abundance fitness: -0.036 ± 0.035 for the first, -0.134 ± 0.24 for the second.

First: KLKCQHCNHLFATKPELLFYKGKMFLFCGKNCSDEYKKKNKVVAMCDYCKLQKIIKETVRFSGMDKPFCSEVCKFLSA [V64M]
Second: KLKCQHCNHLFATKPELLFYKGKMFLFCGKNCSDEYKKKNKVVAMCDYCKLQKIIKETVRFSGVDKPFCSEVCGFLSA [K74G]
The abundance fitness of the first is higher: 0.606 ± 0.095 for the first, -0.427 ± 0.13 for the second.

Compared with KLKCQHCNHLFATKPELLFYKGKMFLFCGKNCSDEYKKKNKVVAMCDYCKLQKIIKETVRFSGVDMPFCSEVCKFLSA [K66M], KLKCQHCNHLFATKPELLFYKGKMFLFCGKNCSDEYKKKNKVVAMCDYCKLQKIIKETVRFHGVDKPFCSEVCKFLSA [S62H] is higher in abundance fitness: 0.325 ± 0.15 for the first, 0.585 ± 0.089 for the second.

First: KLKCQHCNHLFATKPELLFYKGKMFLFCGKNCSDEYKKKNKVVAMCDYCKLQKIIKETVRFQGVDKPFCSEVCKFLSA [S62Q]
Second: KLKCQHCNHLFATKPELLFYKGKMFLFCGKNCSDEYKKKNKVVAMCDYCKLQKIIKETVRFLGVDKPFCSEVCKFLSA [S62L]
The abundance fitness of the first is higher: 0.316 ± 0.08 for the first, -0.19 ± 0.2 for the second.

KLKCQHCNHLFATKPELLFYKGKMFLFCTKNCSDEYKKKNKVVAMCDYCKLQKIIKETVRFSGVDKPFCSEVCKFLSA [G29T] and KLKCQHCNHLFATKPELLFYKGKMFLFCGKNCSDEYKKKNKVVAMCDYCKLQKIIKETVRFSGVPKPFCSEVCKFLSA [D65P] are within error of each other in abundance fitness: -0.145 ± 0.045 for the first, -0.339 ± 0.21 for the second.

KLKCQHCNHLFATKPELLFYKGKMFLFCGKNCSDEYKKKNKVVAMCDYCKLQKIIKETVRFSGVNKPFCSEVCKFLSA [D65N] and KLKCQHCNHLFATKPGLLFYKGKMFLFCGKNCSDEYKKKNKVVAMCDYCKLQKIIKETVRFSGVDKPFCSEVCKFLSA [E16G] are within error of each other in abundance fitness: -0.141 ± 0.34 for the first, -0.279 ± 0.031 for the second.

First: KLKCQHCNHLFATKPELLFYKGKMFLFCGKNCSDEYKTKNKVVAMCDYCKLQKIIKETVRFSGVDKPFCSEVCKFLSA [K38T]
Second: KLKCQHCNHLFATKPELLFYKGKMFLFCGKNCSDEYKKKNKVVAMCDYCKLQKPIKETVRFSGVDKPFCSEVCKFLSA [I54P]
The abundance fitness of the first is lower: -0.014 ± 0.043 for the first, 0.442 ± 0.1 for the second.

KLKCQHCNHLFATKPELLFYKTKMFLFCGKNCSDEYKKKNKVVAMCDYCKLQKIIKETVRFSGVDKPFCSEVCKFLSA [G22T] gave an abundance fitness of -0.054 ± 0.049.
